Assay results reported in paper PMC5501786.

Substrate: O=P(O)(O)O[C@H]1O[C@H](CO)[C@@H](O)[C@H](O)[C@H]1O
Experiment: purified protein
Conditions: synthetic direction, glucosyl donor 0.5-10 mM, 20 mM D-glucose, 1 mM MgCl2, 10 mM DTT, Tris-HCl pH 7.5, 60 °C
Source text: Pi release from G-1-P, molybdate assay, Hanes-Woolf plot on TaCDP (initially TaCBP; THA_1941)

B1: TaCDP (initially TaCBP; THA_1941) (Thermosipho africanus TCF52B) (protein)
chain: MKKFDFVIENYSKQKLFSSFLPGIAGKNGIPLWVFYVNRGQCIASFGIENKANSILEFKPAGQSHTDTPLKGFRTFIKVDGRYYEPFSELTNFKREMRINKNSLEIEERNNELGLKVKVIYFVLPNEDFAALVRRVEIENEDKYEKHIEIIDGLPEVIPYGVSNGLYKEMGYTARAWMHVYNYEKKVPFYSVRTTIGDLEIVEEINNGYFYFASSGDELLEVIYDKNVLFGNSTSLQVPLVFKELGIKEVLRKEQYDENLLPSAFGVLERKLKDKVVINSMIGFSKEKGLINNNINTLKKDEYIISKKEEADLIVEELVSEIKTKTSNKLFDKYCEQNYLDNVLRGGYPLVFENKDGKVVYHIYSRKHGDLERDYNFFVLEAKKYSQGNGNFRDVAQNRRNDVIFHPEIEDFNLSMFVNLIQADGNNPLVVKGTRFKFEGDPSILDGVNEELKEFILNNYFTPGEILEKLKDKNVNEDEFVSKILYHSSQHEQAEFGEGYWIDHWTYLMDLVDTYKEIYPDKLQKTLFEKFEYKIYDSHAYVKPRKEKYKLYKGKVRQIAAVGESHEKLKIIQERGHNYLTDRNGNIYKTNMFEKLLLLAVNKFATLDPYGMGLEMEANKPGWNDALNGLPALFGSGMSETFELKRLINFMYEELKKYNKDIEVFEELQEFIQKIKVELENYFNDNDQFIYWDNVSNAKEEYRSKVFYSITGNKKKISKVELLAILKKMIKKLDEGIERAKNYGKGIYPTFFTYELVDYEVIDGVIIPKKFEVNVLPYFLEGIVRAFKVIDKDEKKKLYDFVKNSNIYDKKLKMYKTSESILNQPYSIGRIRAFTPGWLENESVFMHMEFKYLLELIKSDMLEEFYEDIKTALPPYMDYKVYGRSILENSSFIVSSANSNPNLHGQGFYARLSGSTAEFLSMWKYMFIGDKLFTLENNELTFTFEPKINKEFFENGVIEFKLFSKTKVKYVNPQLKEKIGRIEVFVDGKKFEIHGNKIKGELAHKLRNKKIDEVICYFE
Protein B1 has a Km of 1570 ± 200 µM, a kcat of 7.61 ± 0.66 s⁻¹ and a kcat/Km of 4850 M⁻¹ s⁻¹.
